# B1: Pro (protein, UniProt P93836 1-445, looked up, variant G422P)
# 4-hydroxyphenylpyruvate …: MGHQNAAVSENQNHDDGAASSPGFKLVGFSKFVRKNPKSDKFKVKRFHHIEFWCGDATNVARRFSWGLGMRFSAKSDLSTGNMVHASYLLTSGDLRFLFTAPYSPSLSAGEIKPTTTASIPSFDHGSCRSFFSSHGLGVRAVAIEVEDAESAFSISVANGAIPSSPPIVLNEAVTIAEVKLYGDVVLRYVSYKAEDTEKSEFLPGFERVEDASSFPLDYGIRRLDHAVGNVPELGPALTYVAGFTGFHQFAEFTADDVGTAESGLNSAVLASNDEMVLLPINEPVHGTKRKSQIQTYLEHNEGAGLQHLALMSEDIFRTLREMRKRSSIGGFDFMPSPPPTYYQNLKKRVGDVLSDDQIKECEELGILVDRDDQGTLLQIFTKPLGDRPTIFIEIIQRVGCMMKDEEGKAYQSGGCGGFGKPNFSELFKSIEEYEKTLEAKQLVG
# Legend:
# [1] = test system: Arabidopsis thaliana HPPD; test: Assay for HPPD activity (4-HPP consumption, DNP photometric readout at 405 nm) in presence and absence of Tembotrione; assay type: biochemical; settings: uninhibited enzyme activity set to 100%, 444 nM HPPD, 500 μM 4-HPP, 1 h room temperature
# Description: (§1) HPPD produces homogentisate and CO2 from 4-HPP and O2. The enzyme is incubated with its substrate 4-HPP in the presence or absence of an inhibitor. L-ascorbic acid is present as a reductant to retain the active site iron in the ferrous form and Catalase is present to degrade toxic H2O2. After an incubation time of one hour, the reaction is stopped by addition of 2,4-Dinitrophenylhydrazine (DNP). DNP forms a hydrazone derivative with the remaining 4-HPP molecules in the assay mixture which appears in an amber-brown colour at an alkaline pH. The amount of unconsumed 4-HPP is measured photometrically at 405 nm.
# (§2) For preparation of inhibitor stock solutions, Tembotrione (MW=440.82) and DKN (Mw=359.3) are dissolved in DMSO to a concentration of 10 mM. […] Further dilutions are made with ddH2O to obtain the inhibitor solutions used in the assay (5 μM, 10 μM and 20 μM). […] A 2% DMSO solution provides for half of the assay mixture in uninhibited reactions to normalize a possible inhibiting effect of DMSO.
# (§3) The assay is designed for a HPPD concentration of 444 nM on a monomeric basis and a 4-HPP concentration of 500 μM. This corresponds to 44.4 pmol HPPD and 50 nmol 4-HPP in a 100 μL-assay mixture, resulting in an approximate 1000-fold excess of substrate in relation to the enzyme. The calculated theoretical molecular weight of an AtHPPD subunit is 49.515 kD which results in 2.2 μg HPPD per assay mixture. The calculated theoretical molecular weight of a PfHPPD subunit is 41.205 kD, resulting in 1.8 μg HPPD per assay mixture. The enzyme solution provides for one quarter of the assay mixture volume, so enzyme stock solutions are produced by diluting AtHPPD solutions to 88 μg*mL^−1 with 50 mM TRIS buffer; PfHPPD solutions are diluted to 72 μg*mL^−1.
# (§4) The inhibitor concentrations (2.5 μM, 5 μM and 10 μM) provide for 5-fold, 10-fold and 20-fold excess of inhibitor compared to the amount of enzyme. A buffer/substrate solution is prepared which provides for one quarter of the assay mixture. 2.5 mL of buffer/substrate solution contain 1 mL 1 M TRIS buffer, 500 μL 10 mM 4-HPP solution, 500 μL 200 mM L-ascorbic acid solution, 13 μL Catalase solution and 487 μL ddH2O. The assay is carried out in Greiner F-bottom 96 well microplates and all reactions are carried out as triplicates. The controls are carried out sixfold per plate and contain either 25 μL 50 mM TRIS instead of HPPD solution (corresponding to 0% consumption of 4-HPP) or a buffer/substrate solution that contains 500 μL 1 M TRIS instead of 500 μL 10 mM 4-HPP (corresponding to 100% consumption of HPP). The reaction is started by addition of 25 μL HPPD solution to a mixture of 50 μL of the respective inhibitor solution or 50 μL 2% DMSO and 25 μL buffer/substrate solution. The reaction is allowed to proceed for 1 h at room temperature. The reaction is stopped and coloration of 4-HPP is induced by addition of 50 μL 0.04% DNP/3.8 N HCl solution. After 15 min, addition of 100 μL 5 N KOH leads to the colour shift of the hydrazone derivative. Photometric measurement with a BMG FLUOstar Galaxy microplate reader is carried out immediately at 405 nm and data obtained is used for analysis of HPPD activities in presence and absence of an inhibitor.
# [2] = test system: Pseudomonas fluorescens HPPD; test: as above; assay type: biochemical; settings: uninhibited enzyme activity set to 100%, 444 nM HPPD, 500 μM 4-HPP, 1 h room temperature
# Description: as §1, §2, §3, §4
molecule,measurement,setting,value
B1,Relative activity (in percentage) of At HPPD mutants in presence of Tembotrione,[1]; 5 μM Tembotrione,0%
same,Relative activity (in percentage) of At HPPD mutants in presence of Tembotrione,[1]; 10 μM Tembotrione,0%
same,Relative activity (in percentage) of At HPPD mutants in presence of Tembotrione,[1]; […] Tembotrione,0%
same,Relative activity (in percentage) of Pf HPPD mutants in presence of Tembotrione,[2]; 5 μM Tembotrione,4%
same,Relative activity (in percentage) of Pf HPPD mutants in presence of Tembotrione,[2]; 10 μM Tembotrione,0%
same,Relative activity (in percentage) of Pf HPPD mutants in presence of Tembotrione,[2]; […] Tembotrione,5%

# Source: US20140223597A1, “Mutated Hydroxyphenylpyruvate Dioxygenase, DNA Sequence and Isolation of Plants Which Are Tolerant To HPPD Inhibitor Herbicides” (Bayer CropScience AG, priority 2008, published 2014)
